Laboratory results taken from patent US20250326807A1 (published 2025).
Where two headings read alike, the source gives them in different places. Ends that are not written are not given here.

Experiments:
[1] = molecular target: T1, Recombinantly expressed fused calprotectin (His6-linker-S100A9-linker-S100A8), product code B-RCAL, BÜHLMANN … (human, UniProt P06702 1-114; P05109 1-93)
T1 chain: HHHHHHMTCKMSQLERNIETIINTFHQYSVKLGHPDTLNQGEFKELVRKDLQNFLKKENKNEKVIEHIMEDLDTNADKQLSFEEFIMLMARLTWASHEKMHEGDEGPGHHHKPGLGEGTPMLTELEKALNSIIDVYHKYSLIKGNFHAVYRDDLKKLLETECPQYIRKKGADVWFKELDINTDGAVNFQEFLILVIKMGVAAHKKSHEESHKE

[2] = molecular target: T1, Recombinantly expressed fused …; assay: fluorescence polarization
[3] = molecular target: T1, Recombinantly expressed fused …; assay: fluorescence polarization
M10 D-Ala = assay: SPR
F11 D-Ala = assay: SPR
F8 β-Ala = assay: SPR
P9 β-Ala = assay: SPR
F11 β-Ala = assay: SPR
P9 D-Ala = assay: SPR
Q12 D-Ala = assay: SPR
F8 D-Ala = assay: SPR
Y16 β-Ala = assay: SPR
Y16 D-Ala = assay: SPR
Q12 β-Ala = assay: SPR
M10 β-Ala = assay: SPR
[4] = molecular target: T1, Recombinantly expressed fused …; assay: fluorescence polarization
[5] = molecular target: T1, Recombinantly expressed fused …; assay: fluorescence polarization
[6] = molecular target: T1, Recombinantly expressed fused …; assay: fluorescence polarization

B1: Linear peptide 3 (RSPESVAFPMFQSHWYSG), all cysteines replaced by serines (peptide)
peptide: RSPESVAFPMFQSHWYSG-NH2
modifications: also: N-terminal 5(6)-carboxyfluorescein only in the fluorescence polarization assay version
Work on B1 yielded a Kd [1] of 25.5 nM.

B2: SCQCPWDLFSQHSLSDCCD (peptide)
peptide: SCQCPWDLFSQHSLSDCCD
modifications: not fully specified; cross-linked between cysteines (linker not named); N-terminal 5(6)-carboxyfluorescein; synthesised on rink amide AM resin
B2 gave a Kd [2] of 25 nM.

B3: TCPLNRTQCPLYACTTCP (peptide)
peptide: TCPLNRTQCPLYACTTCP
modifications: not fully specified; cross-linked between cysteines (linker not named); N-terminal 5(6)-carboxyfluorescein; synthesised on rink amide AM resin
B3 showed a Kd [3] of 34 nM.

B4: calprotectin (other)
chain: HHHHHHMTCKMSQLERNIETIINTFHQYSVKLGHPDTLNQGEFKELVRKDLQNFLKKENKNEKVIEHIMEDLDTNADKQLSFEEFIMLMARLTWASHEKMHEGDEGPGHHHKPGLGEGTPMLTELEKALNSIIDVYHKYSLIKGNFHAVYRDDLKKLLETECPQYIRKKGADVWFKELDINTDGAVNFQEFLILVIKMGVAAHKKSHEESHKE
B4 gave a Kd (M10 D-Ala) greater than 10000 nM, a Kd (F11 D-Ala) greater than 10000 nM and a Kd (F8 β-Ala) greater than 10000 nM. For the same binder, the Kd (P9 β-Ala) was greater than 10000 nM, the Kd (F11 β-Ala) was greater than 10000 nM and the Kd (P9 D-Ala) was greater than 10000 nM. It also gave a Kd (Q12 D-Ala) greater than 10000 nM, a Kd (F8 D-Ala) greater than 10000 nM and a Kd (Y16 β-Ala) greater than 10000 nM. For the same binder, the Kd (Y16 D-Ala) was greater than 10000 nM, the Kd (Q12 β-Ala) was greater than 10000 nM and the Kd (M10 β-Ala) was greater than 10000 nM.

B5: CTQSPCPLYDSHQCSCK (peptide)
peptide: CTQSPCPLYDSHQCSCK
modifications: not fully specified; cross-linked between cysteines (linker not named); N-terminal 5(6)-carboxyfluorescein; synthesised on rink amide AM resin
With B5 the Kd [4] was 38 nM.

B6: ACRTCPLFTCPSCG (peptide)
peptide: ACRTCPLFTCPSCG
modifications: not fully specified; cross-linked between cysteines (linker not named); N-terminal 5(6)-carboxyfluorescein; synthesised on rink amide AM resin
B6 was tested, and the Kd [5] was 89 nM.

B7: VCQQTASRCPVWECQRCP (peptide)
peptide: VCQQTASRCPVWECQRCP
modifications: not fully specified; cross-linked between cysteines (linker not named); N-terminal 5(6)-carboxyfluorescein; synthesised on rink amide AM resin
In the case of B7, the Kd [3] is reported as 55 nM.

B8: Peptide 3 (RCPECVAFPMFQCHWYCG), phage display derived, cross-linked between cysteines (peptide)
peptide: RCPECVAFPMFQCHWYCG
modifications: not fully specified; cysteines cross-linked by a chemical linker (linker and isomer not named); N-terminal 5(6)-carboxyfluorescein; synthesised on rink amide AM resin
Work on B8 yielded a Kd [6] of 23 nM.

B9: VCPCPLFRAHGCSRFSCQ (peptide)
peptide: VCPCPLFRAHGCSRFSCQ
modifications: not fully specified; cross-linked between cysteines (linker not named); N-terminal 5(6)-carboxyfluorescein; synthesised on rink amide AM resin
In the case of B9, the Kd [4] is reported as 22 nM.

B10: GCDLAHQPCPLYKCTKCP (peptide)
peptide: GCDLAHQPCPLYKCTKCP
modifications: not fully specified; cross-linked between cysteines (linker not named); N-terminal 5(6)-carboxyfluorescein; synthesised on rink amide AM resin
Binder B10 has a Kd [2] of 10 nM.
